We go through 11 molecules from US20190048089A1 (Janssen / Centocor, published 2019).

As a reminder, the Kd is the concentration at which binding is half-saturated. Low values mean higher affinity, high ones lower affinity. For orientation: koff means a measure of how fast the partners let go of each other. The low end stands for slow dissociation, the high end for fast dissociation. As usually defined, the kon is a measure of how fast the partners come together. Lower therefore signals slower complex formation.

Sequences and labels used below:
T1: cyno CD40 on cyno spleen B cells (Macaca fascicularis (cynomolgus), UniProt P25942 21-277 (human entry))
T1 chain: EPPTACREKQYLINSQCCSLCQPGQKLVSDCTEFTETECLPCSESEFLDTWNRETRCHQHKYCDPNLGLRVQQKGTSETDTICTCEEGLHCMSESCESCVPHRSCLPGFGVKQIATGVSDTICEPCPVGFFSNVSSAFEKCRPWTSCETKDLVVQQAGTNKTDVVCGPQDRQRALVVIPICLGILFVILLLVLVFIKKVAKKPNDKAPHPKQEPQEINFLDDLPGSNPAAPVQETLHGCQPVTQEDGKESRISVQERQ

B1: C40B125 (antibody, human IgG1, lambda)
heavy: EVQLVESGGGLVQPGGSLRLSCAASGFTFSSYAMSWVRQAPGKGLEWVSTIQNAGGGTYYADSVKGRFTISRDNSKNTLYLQMNSLRAEDTAVYYCAKEGGKYYYYAMDVWGQGTTVTVSSASTKGPSVFPLAPSSKSTSGGTAALGCLVKDYFPEPVTVSWNSGALTSGVHTFPAVLQSSGLYSLSSVVTVPSSSLGTQTYICNVNHKPSNTKVDKKVEPKSCDKTHTCPPCPAPEAAGASSVFLFPPKPKDTLMISRTPEVTCVVVDVSAEDPEVKFNWYVDGVEVHNAKTKPREEQYNSTYRVVSVLTVLHQDWLNGKEYKCKVSNKALPSSIEKTISKAKGQPREPQVYTLPPSREEMTKNQVSLTCLVKGFYPSDIAVEWESNGQPENNYKTTPPVLDSDGSFFLYSKLTVDKSRWQQGNVFSCSVMHEALHNHYTQKSLSLSPGK
light: SYELTQPPSVSVSPGQTASITCSGDKLGDKYAAWYQQKPGQSPVLVIYQDSRRPSGIPERFSGSNSGNTATLTISGTQAMDEADYYCQAWASSTVVFGGGTKLTVLGQPKAAPSVTLFPPSSEELQANKATLVCLISDFYPGAVTVAWKADSSPVKAGVETTTPSKQSNNKYAASSYLSLTPEQWKSHRSYSCQVTHEGSTVEKTVAPTECS
notes: IgG1sigma
B2: C40B127 (antibody, human IgG1, lambda)
heavy: B1 heavy with Q52N, N53Q
light: B1 light
notes: IgG1sigma
B3: C40B138 (antibody, human IgG4 S228P, lambda, F234A L235A)
heavy: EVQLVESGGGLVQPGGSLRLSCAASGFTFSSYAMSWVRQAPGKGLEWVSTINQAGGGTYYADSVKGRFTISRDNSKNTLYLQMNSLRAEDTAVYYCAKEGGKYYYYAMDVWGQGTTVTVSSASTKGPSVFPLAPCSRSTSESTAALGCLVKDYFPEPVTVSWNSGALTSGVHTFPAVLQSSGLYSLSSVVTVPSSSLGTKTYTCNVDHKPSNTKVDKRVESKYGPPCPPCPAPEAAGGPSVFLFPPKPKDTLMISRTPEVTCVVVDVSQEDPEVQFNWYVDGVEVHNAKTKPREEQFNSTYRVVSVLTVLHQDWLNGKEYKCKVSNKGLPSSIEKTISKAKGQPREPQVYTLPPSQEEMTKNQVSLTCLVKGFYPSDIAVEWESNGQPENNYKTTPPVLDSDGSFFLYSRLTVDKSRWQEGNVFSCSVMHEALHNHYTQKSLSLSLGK
light: B1 light
notes: IgG4PAA
B4: C40B179 (antibody, human IgG1, lambda)
heavy: B1 heavy with Q52N, N53Q, M108L
light: B1 light
notes: IgG1sigma
B5: C40B136 (antibody, human IgG4 S228P, lambda, F234A L235A)
heavy: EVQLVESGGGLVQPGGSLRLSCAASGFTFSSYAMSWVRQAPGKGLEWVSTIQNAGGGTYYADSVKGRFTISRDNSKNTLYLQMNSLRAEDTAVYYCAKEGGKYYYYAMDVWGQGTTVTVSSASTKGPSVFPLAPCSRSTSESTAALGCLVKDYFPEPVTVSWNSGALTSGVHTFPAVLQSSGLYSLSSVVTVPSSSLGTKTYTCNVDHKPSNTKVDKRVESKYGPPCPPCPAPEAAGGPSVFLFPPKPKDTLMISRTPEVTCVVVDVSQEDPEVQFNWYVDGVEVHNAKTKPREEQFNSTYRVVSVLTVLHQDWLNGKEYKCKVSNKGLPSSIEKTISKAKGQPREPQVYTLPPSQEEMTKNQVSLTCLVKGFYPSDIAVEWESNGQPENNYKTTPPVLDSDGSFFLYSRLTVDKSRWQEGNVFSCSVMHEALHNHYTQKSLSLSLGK
light: B1 light
notes: IgG4PAA
B6: C40B135 (antibody, human IgG4 S228P, lambda, F234A L235A)
heavy: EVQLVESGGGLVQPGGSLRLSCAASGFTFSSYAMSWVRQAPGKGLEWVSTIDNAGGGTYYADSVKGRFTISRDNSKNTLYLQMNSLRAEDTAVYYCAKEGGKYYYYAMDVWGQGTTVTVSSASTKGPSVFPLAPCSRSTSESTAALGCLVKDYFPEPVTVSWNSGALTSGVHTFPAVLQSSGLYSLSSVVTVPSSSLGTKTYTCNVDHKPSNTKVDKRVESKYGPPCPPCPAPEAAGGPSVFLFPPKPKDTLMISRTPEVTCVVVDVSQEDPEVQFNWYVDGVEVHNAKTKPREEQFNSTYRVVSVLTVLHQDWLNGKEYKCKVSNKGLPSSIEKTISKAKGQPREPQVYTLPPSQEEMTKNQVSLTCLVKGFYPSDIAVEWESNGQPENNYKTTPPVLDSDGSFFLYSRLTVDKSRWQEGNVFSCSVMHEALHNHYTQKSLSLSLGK
light: B1 light
notes: IgG4PAA
B7: C40B180 (antibody, human IgG4 S228P, lambda, F234A L235A)
heavy: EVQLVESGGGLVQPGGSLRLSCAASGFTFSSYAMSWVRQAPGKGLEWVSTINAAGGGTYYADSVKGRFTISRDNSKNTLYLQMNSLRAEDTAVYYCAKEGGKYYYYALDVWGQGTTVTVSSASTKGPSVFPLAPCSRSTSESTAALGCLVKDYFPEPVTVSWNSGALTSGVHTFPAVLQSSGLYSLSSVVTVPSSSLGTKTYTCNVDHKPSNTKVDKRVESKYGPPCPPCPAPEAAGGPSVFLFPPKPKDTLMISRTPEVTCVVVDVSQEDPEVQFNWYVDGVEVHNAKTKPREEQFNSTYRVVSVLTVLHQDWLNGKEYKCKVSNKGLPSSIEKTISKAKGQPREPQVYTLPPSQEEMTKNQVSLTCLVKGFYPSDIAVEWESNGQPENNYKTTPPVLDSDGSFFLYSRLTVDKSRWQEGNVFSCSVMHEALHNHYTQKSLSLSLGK
light: B1 light
notes: IgG4PAA
B8: C40B183 (antibody, human IgG4 S228P, lambda, F234A L235A)
heavy: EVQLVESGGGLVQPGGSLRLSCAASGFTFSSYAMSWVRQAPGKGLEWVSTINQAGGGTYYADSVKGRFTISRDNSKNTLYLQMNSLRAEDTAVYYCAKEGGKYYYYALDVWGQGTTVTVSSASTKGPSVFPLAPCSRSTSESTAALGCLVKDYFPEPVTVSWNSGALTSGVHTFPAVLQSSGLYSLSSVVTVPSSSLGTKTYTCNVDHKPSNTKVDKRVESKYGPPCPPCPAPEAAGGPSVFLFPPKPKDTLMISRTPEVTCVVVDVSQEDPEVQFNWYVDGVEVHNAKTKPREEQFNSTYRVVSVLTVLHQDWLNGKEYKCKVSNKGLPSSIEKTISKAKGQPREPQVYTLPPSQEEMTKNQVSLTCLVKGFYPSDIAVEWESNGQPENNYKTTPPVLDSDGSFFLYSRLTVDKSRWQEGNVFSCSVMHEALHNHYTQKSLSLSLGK
light: B1 light
notes: IgG4PAA
B9: C40B124 (antibody, human IgG1, lambda)
heavy: B1 heavy with Q52D
light: B1 light
notes: IgG1sigma
B10: C40B131 (antibody, human IgG4 S228P, lambda, F234A L235A, V domains shown)
VH: EVQLVESGGGLVQPGGSLRLSCAASGFTFSSYAMSWVRQAPGKGLEWVSTINAAGGGTYYADSVKGRFTISRDNSKNTLYLQMNSLRAEDTAVYYCAKEGGKYYYYAMDVWGQGTTVTVSS
VL: SYELTQPPSVSVSPGQTASITCSGDKLGDKYAAWYQQKPGQSPVLVIYQDSRRPSGIPERFSGSNSGNTATLTISGTQAMDEADYYCQAWASSTVVFGGGTKLTVLG
notes: IgG4PAA
B11: C40B16 (antibody, human IgG1, lambda, V domains shown)
VH: B10 VH with K43R, A53N, A54S, Q82H
VL: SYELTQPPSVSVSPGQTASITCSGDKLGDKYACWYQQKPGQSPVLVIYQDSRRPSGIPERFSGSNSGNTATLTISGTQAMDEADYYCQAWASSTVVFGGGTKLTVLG
notes: Wild-type IgG1, lambda light chain; also called parental C40B16

Positions count from the first letter of the chain named.

The target in one experiment is T1, cyno CD40 on cyno spleen B cells. The experiment can be described thus: cell-based or functional assay.
As for B1, the “IC50, sCD40L-driven cyno B-cell proliferation” value came out at 0.083 nM.

As for B2, the “IC50, sCD40L-driven cyno B-cell proliferation” value was determined as 0.066 nM.

As to B3, the “IC50, sCD40L-driven cyno B-cell proliferation” value is 0.075 nM.

Consider B4, for which the “IC50, sCD40L-driven cyno B-cell proliferation” value came out at 0.119 nM.

As to B5, the “IC50, sCD40L-driven cyno B-cell proliferation” value amounted to 0.065 nM.

For B6, the “IC50, sCD40L-driven cyno B-cell proliferation” value stood at 0.077 nM.

Turning to B7, the “IC50, sCD40L-driven cyno B-cell proliferation” value is 0.109 nM.

With B8, the “IC50, sCD40L-driven cyno B-cell proliferation” value is 0.11 nM.

For the next experiment, the target named is T2, human CD40 on cells (human tonsillar B cells, human dendritic cells, HEK-Blue CD40L cells) (human, UniProt P25942 21-277). Put plainly: cell-based or functional assay.
For B9, the “IC50, mCD40L-driven human B-cell proliferation” value came to 0.118 nM.

For the molecule B1, the “IC50, mCD40L-driven human B-cell proliferation” value was found to be 0.128 nM and the “IC50, sCD40L-driven human B-cell proliferation” value amounted to 0.088 nM.

For the molecule B2, the “IC50, mCD40L-driven human B-cell proliferation” value came to 0.111 nM and the “IC50, sCD40L-driven human B-cell proliferation” value worked out at 0.073 nM.

Regarding B3, the “IC50, mCD40L-driven human B-cell proliferation” value stood at 0.106 nM and the “IC50, sCD40L-driven human B-cell proliferation” value came out at 0.048 nM.

Regarding B4, the “IC50, mCD40L-driven human B-cell proliferation” value turned out to be 0.178 nM and the “IC50, sCD40L-driven human B-cell proliferation” value came out at 0.132 nM.

In the case of B5, the “IC50, mCD40L-driven human B-cell proliferation” value stood at 0.122 nM and the “IC50, sCD40L-driven human B-cell proliferation” value turned out to be 0.087 nM.

As to B10, the “IC50, mCD40L-driven human B-cell proliferation” value worked out at 0.099 nM.

As for B6, the “IC50, mCD40L-driven human B-cell proliferation” value was found to be 0.131 nM and the “IC50, sCD40L-driven human B-cell proliferation” value is 0.056 nM.

As for B7, the “IC50, mCD40L-driven human B-cell proliferation” value came out at 0.136 nM and the “IC50, sCD40L-driven human B-cell proliferation” value turned out to be 0.092 nM.

For the molecule B8, the “IC50, mCD40L-driven human B-cell proliferation” value turned out to be 0.14 nM and the “IC50, sCD40L-driven human B-cell proliferation” value was determined as 0.103 nM.

For another experiment, the target named is T2, human CD40 on cells (human tonsillar B …). The experiment can be described thus: cell-based or functional assay. The source holds these as a separate data set.
For the molecule B9, the “IC50, mCD40L-driven DC IL-12p40 production” value was 0.507 nM and the “IC50, sCD40L-driven DC IL-12p40 production” value stood at 0.387 nM.

Regarding B1, the “IC50, mCD40L-driven DC IL-12p40 production” value was determined as 0.393 nM and the “IC50, sCD40L-driven DC IL-12p40 production” value stood at 0.244 nM.

For B2, the “IC50, mCD40L-driven DC IL-12p40 production” value was 0.383 nM and the “IC50, sCD40L-driven DC IL-12p40 production” value came out at 0.27 nM.

In the case of B3, the “IC50, mCD40L-driven DC IL-12p40 production” value was determined as 0.341 nM and the “IC50, sCD40L-driven DC IL-12p40 production” value was 0.262 nM.

Turning to B4, the “IC50, mCD40L-driven DC IL-12p40 production” value turned out to be 0.297 nM and the “IC50, sCD40L-driven DC IL-12p40 production” value is 0.184 nM.

With B5, the “IC50, mCD40L-driven DC IL-12p40 production” value turned out to be 0.379 nM and the “IC50, sCD40L-driven DC IL-12p40 production” value was determined as 0.246 nM.

Turning to B10, the “IC50, mCD40L-driven DC IL-12p40 production” value turned out to be 0.323 nM and the “IC50, sCD40L-driven DC IL-12p40 production” value came out at 0.33 nM.

On to B6, for which the “IC50, mCD40L-driven DC IL-12p40 production” value worked out at 0.43 nM and the “IC50, sCD40L-driven DC IL-12p40 production” value came to 0.329 nM.

Turning to B7, the “IC50, mCD40L-driven DC IL-12p40 production” value is 0.222 nM and the “IC50, sCD40L-driven DC IL-12p40 production” value is 0.225 nM.

With B8, the “IC50, mCD40L-driven DC IL-12p40 production” value is 0.291 nM and the “IC50, sCD40L-driven DC IL-12p40 production” value was 0.208 nM.

The next experiment addresses T3, human CD40 (analyte in SPR) (human, UniProt P25942 21-193).
T3 construct: also called huCD40
The experiment can be described thus: affinity in benchmark table; method not restated (SPR ProteOn of Example 3 presumed).
Molecule B4 displayed a Kd of 0.0343 nM.

The molecule B7 registered a Kd of 0.0599 nM.

The molecule B8 came in with a Kd of 0.107 nM.

In a further experiment the target is T3, human CD40 (analyte in SPR). Put plainly: SPR, ProteOn XPR36, mAb captured on anti-human IgG Fc, CD40 as analyte, 25 C, 1:1 Langmuir. The procedure: Affinity of the antibodies to human CD40 was assessed using Surface Plasmon Resonance (SPR) using a ProteOn XPR36 system (BioRad). […] Approximately 5000 RU (response units) of mAbs were immobilized. The kinetic experiments were performed at 25° C. in running buffer (DPBS+0.01% P20+100 μg/ml BSA). To perform kinetic experiments, 200 RU of mAbs were captured followed by injections of analytes (human or cyno CD40) at 5 concentrations (in a 4-fold serial dilution). The association phase was monitored for 3 minutes at 50 μL/min, then followed by 15 minutes of buffer flow (dissociation phase). The chip surface was regenerated with two 18 second pulses of 100 mM H₃PO₄ (Sigma, Cat#7961) at 100 μL/min.
The collected data were processed using ProteOn Manager software. First, the data was corrected for background using inter-spots. Then, double reference subtraction of the data was performed by using the buffer injection for analyte injections. The kinetic analysis of the data was performed using a Langmuir 1:1 binding model. The results were reported in the format of Ka (On-rate), Kd (Off-rate) and KD (equilibrium dissociation constant).
On the technique in general: SPR reads the build-up and loss of mass on a sensor chip optically.
Take B11: the Kd came to 0.0368 nM, the koff came out at 0.000157 s⁻¹ and the kon was 4.27e+06 M⁻¹ s⁻¹.

B9: the Kd is 0.0416 nM, the koff stood at 9.56e-05 s⁻¹ and the kon turned out to be 2.3e+06 M⁻¹ s⁻¹.

B1 showed a Kd of 0.0349 nM, a koff of 0.000136 s⁻¹ and an on-rate constant (kon) of 3.89e+06 M⁻¹ s⁻¹.

For the molecule B2, the affinity, expressed as Kd, was 0.0303 nM; the off-rate constant (koff) came to 0.000115 s⁻¹; the kon came to 3.79e+06 M⁻¹ s⁻¹.

B3 displayed a Kd of 0.0599 nM, a koff of 0.000215 s⁻¹ and an association rate constant (kon) of 3.58e+06 M⁻¹ s⁻¹.

Molecule B4 returned a Kd of 0.0933 nM, a koff of 0.000267 s⁻¹ and an on-rate (kon) of 2.86e+06 M⁻¹ s⁻¹.

On to B5, for which the Kd was found to be 0.0343 nM, the koff worked out at 0.000113 s⁻¹ and the kon is 3.3e+06 M⁻¹ s⁻¹.

Molecule B10 yielded a Kd of 0.0812 nM, a koff of 0.000286 s⁻¹ and a kon of 3.52e+06 M⁻¹ s⁻¹.

B6: binding was characterised by a dissociation constant (Kd) of 0.0496 nM, the dissociation rate constant (koff) came to 0.000145 s⁻¹ and the kon came to 2.93e+06 M⁻¹ s⁻¹.

B7 had a Kd of 0.137 nM, a koff of 0.000366 s⁻¹ and a kon of 2.67e+06 M⁻¹ s⁻¹.

Molecule B8 displayed a Kd of 0.121 nM, a koff of 0.00035 s⁻¹ and a kon of 2.91e+06 M⁻¹ s⁻¹.
